# Data: the RNAGym collection of RNA variant scans (doi:10.1073/pnas.2313332121)
# Fewer inactive variants are shown than the library holds.
# B1: TPR 5TU (parent)
# chain: GGAUCUUCUCGAUCUAACAAAAAAGACAAAUCUGCCACAAAGCUUGAGAGCAUCUUCGGAUGCAGAGGCGGCAGCCUUCGGUGGCGCGAUAGCGCCAACGUUCUCAACUAUGACACGCAAAACGCGUGCUCCGUUGAAUGGAGUUUAUCAUG
# Variants of: B1
# Test: polymerase ribozyme fitness, log enrichment relative to wild type (log ratio); higher = more active; in vitro selection for triplet polymerase activity
# How it was run: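 Fitness compares each genotype's enrichment to that of the wild type on a logarithmic scale, averaging replicates with inverse-variance weights. The logarithm is base 2. Enrichment came from Illumina sequencing of input and output libraries after one triplicate round of in vitro selection, which included frozen incubation at −7 °C, of PCR-built, transcribed mutant libraries of each subunit of a heterodimeric triplet polymerase ribozyme. Only genotypes with ≥10 input reads and ≥1 read per output were kept.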
row,Variant,polymerase ribozyme fitness (log ratio)
1,GGAUCUUCUCGAUCUAACAAAAAAGACAAAUCUGCCCCAAAGCUUGAGCGCAUCUUCGGAUGCAGAGGCGGCAGCCAUCGGUGGCGGGAUAGCGCCAACGUUCUCAACUAUGACACGCAGAACGCGUGCUGCGUUGAAUGGAGUUUAUCAUG [A37C A49C U77A C87G A120G C131G],≤ -4.2
2,GGAUCUUCUCGAUCUAACAAAAAAGACAAAUCUGCCCCAAAGCUUGAGAGCAUCUUCGGAUGCAGAGGCGGCAGCCUUCGGUGGCGCGAUAGCGCCAAUGUUCUCAACUAUGACACGUAAAACGCGUGCUCCGUUGAAUGGAAAUUAUCAUG [A37C C99U C118U G143A U144A],-3.39
3,GGAUCUUCUCGAUCUAACAAAAAAGACAAAUCUGCCCCAAAGCUUGAGAGCAUCUUCGGAUGCAGAGGCGGCAGCCUUCGGUGGCGCGAUAGCGCCAUCGUUCUCAACUAUGACACGCAAAACGCGUGCUCCGUUGAAUGGAGUUUAUCAUG [A37C A98U],0.384
4,GGAUCUUCUCGAUCUAACAAAAAAGACAAAUCUGCUACAAAGCUUGAGAGCAUCUUCGGAAGCAGAGGCGGCAGCCUUCGGUGGCGCGAUAGCGCGAACGUUCUCAACUAUGACACGCAAAACGCGUGCUCCAUUGAAUGGAGUUUAUCAUG [C36U U61A C96G G133A],-3.93
5,GGAUCUUCUCGAUCUAACAAAAAAGACAAAUCUGCUACAAAGCUUGAUAGCAUCUUCGGAUGCAGAGGCGGCAGCCUUCGGUGGCGCGAUAGCGCGAACGUUGUCAACUAUGACACGCAACACGCGUGCUCCGUUGAAUGGAGUUUAUCAUG [C36U G48U C96G C103G A121C],-2.74
6,GGAUCUUCUCGAUCUAACAAAAAAGACAAAUCUGCUACAAAGCUUGAGACCAACUUCGCAUGCAGAGGCGGCAGCCUACGGUGGCGCGAUAGCGCCAACGUUCUCAACUAUGACACGCAAAACGCGUGCUCCGUUGAAUGGAGUUUAUCAUG [C36U G50C U53A G59C U78A],≤ -4.2
7,GGAUCUUCUCGAUCUAACAAAAAAGACAAAUCUGCUACAAAGCUUGAGAGCAUCAUCGGAUGCAGAGGCGGCAGCCUUCGGUGGCGCGAUAGUGCCAACGUUCUCAACUAUGACACGCAAAACGCGUGCUCCGUUGAAUGGAGGUUAUCAUG [C36U U55A C93U U144G],-1.07
8,GGAUCUUCUCGAUCUAACAAAAAAGACAAAUCUGCUACAAAGCUUGAGAGCAUCUUCGGAAGCAGAGGCGGCAGCCUUCGGUGGCGCGAUAGCGUCAACGUCCUCAACUAUGACACGCAAAACGCGUGCUCCGUUGAAUGGAGUUUAUCAUG [C36U U61A C95U U102C],-4
9,GGAUCUUCUCGAUCUAACAAAAAAGACAAAUCUGCUACAAAGCUUAAGAGCAUCUUCGGAUGCAGAGGCAGCAGCCUUCGGUCGCGCGAUAGCGCCAACGUUCUCAACUAUGACACGCAUAACGCGUGCUCCCUUGAAUGGAGUUUAUCAUG [C36U G46A G70A G83C A120U G133C],-3.23
10,GGAUCUUCUCGAUCUAACAAAAAAGACAAAUCUGCCCCAAAGCUUGAGAGCAUCUUCGGAUGCAGAGGCGGCAGCCUUCGGUGGCGAGAUAGCGCCAACGUUCUCAACUAUGACACGCAAAACGCGUGCUCCGUUGAAUGGAGUUUAUCAUG [A37C C87A],≤ -4.2
11,GGAUCUUCUCGAUCUAACAAAAAAGACAAAUCUGCCCCAAAGCUUGAGAGCAUCUUCGGAUGCAGAGGCGGCAGCCUUCGGUGGCGCGAUAGCGCCAACGUUCUCAACUAUGACACGCAAAAUGCGUGCUCCGUUGAAUGGAGUUUAUCAUG [A37C C123U],0.207
12,GGAUCUUCUCGAUCUAACAAAAAAGACAAAUCUGCUACAAAGCUUGAGAGCAUCUACGGAUGCAGAGGCGGCAGCCUUCGGUGGGGCGAUAGCGCCAACGUUCUAAACUAUGACAAGCAAAACGCGUGCUCCGUUGAAUGGAGUUUAUCAUG [C36U U56A C85G C105A C116A],≤ -4.2
13,GGAUCUUCUCGAUCUAACAAAAAAGACAAAUCUGCUACAAAGCUUGAGAGCAUCUUCGAAUGCAGAGGCGGCAGCCUUCGGUGGCGCGAUAGCUCCAACGUUCUCACCUAUGACACGCAAAACGCGUGCUCCCUUGAAUUGAGGUUAUCAUG [C36U G59A G94U A107C G133C G140U U144G],≤ -4.2
14,GGAUCUUCUCGAUCUAACAAAAAAGACAAAUCUGCCCCAAAGCUUGAGAGCAUCUUCGGAUGCAGAGGCGGCAGCCUUCGGUGGCGCGAUAGCGGCAACGUUCUCAACUAUGACACGCAAAACGCGUGCUCCGGUGAAUGGAGUUUAUCAUG [A37C C95G U134G],-3.26
15,GGAUCUUCUCGAUCUAACAAAAAAGACAAAUCUGCCCCAACGCUUGAGAGCAUCUACGGAUGCAGACGCGGCAGCCUUCGGUGGAGCGAUAGCGCCAACGUUCUCAACUAUGACACGCAAAACGCAUGCUACGUUGAAUGAAGUUUAUCAUG [A37C A41C U56A G67C C85A G126A C131A G141A],≤ -4.2
16,GGAUCUUCUCGAUCUAACAAAAAAGACAAAUCUGCCCCAAAGCUUGAGAGCAUCUUCGGUUGUAGAGGCGGCAGCCUUCGGUGGCUCGAUAGCGCCAGCGUUCUCAACUAUGACACGCAAAACGCGUGCUCCGUUGAAUGGAGUUUAUCAUG [A37C A60U C63U G86U A98G],-3.99
17,GGAUCUUCUCGAUCUAACAAAAAAGACAAAUCUGCUACAAAGCUUGAGAGCAUCUUCGGAUGCAGAGGCGGCAGCCUUCGGUGGCGCGAUACCGCCAACUUUCUCAACUAUGACACACAAAGCGCGUGCUCCGUUGAAUGGAGUUUAUCAUG [C36U G92C G100U G117A A122G],≤ -4.2
18,GGAUCUUCUCGAUCUAACAAAAAAGACAAAUCUGCUACAAAGCUUGAGAGCAUCUUCGGAGGCAGAGGCGGCAGCCUUCGGGGGUGCGAUAGCGCCAACGUUCUCAACUAUGACACGCAAAACGCGUGCUCCGUUGAAUGGAGUUUAUCAUG [C36U U61G U82G C85U],-3.95
19,GGAUCUUCUCGAUCUAACAAAAAAGACAAAUCUGCUACAAAGCUUGAGAGCAACUUCGGAUGCAGAGGCGGCAGCCUACGGUAGCGCGACAGCGCCAACGUUCUCAACUAUGACACGCAAAACGCGUGCUCCGUUGAAUGGAGUUUAUCAUG [C36U U53A U78A G83A U90C],≤ -4.2
